This note sets out measurements from publication PMC5424357.

Assay in all cases: purified protein
Common to all, as to details: optimal conditions (optimum pH 8.0, 30 °C), substrate range stated 0.2–2.4 mM

The subject of series [1] is C#CCOC(=O)[C@@H](C)Oc1ccc(Oc2ncc(Cl)cc2F)cc1.
Series [2] concerns CCCCOC(=O)[C@@H](C)Oc1ccc(Oc2ccc(C#N)cc2F)cc1.
Series [3] concerns CCOC(=O)[C@@H](C)Oc1ccc(Oc2nc3ccc(Cl)cc3o2)cc1.
For series [4], the system named is COC(=O)[C@@H](C)Oc1ccc(Oc2ncc(C(F)(F)F)cc2Cl)cc1.
The subject of series [5] is C[C@@H](Oc1ccc(Oc2cnc3cc(Cl)ccc3n2)cc1)C(=O)OCC1CCCO1.

In the case of QpeH (Pseudomonas sp.), the Km in series [1] was 174.0 ± 4.2 µM; in series [2] it was 158.2 ± 3.5 µM; in series [3] it was 26.9 ± 4.3 µM; in series [4] it was 113.9 ± 3.8 µM; in series [5], 29.5 ± 2.7 µM. For the same substance, the kcat came to 37.1 ± 2.9 s⁻¹ in series [1]; 41.1 ± 4.1 s⁻¹ in series [2]; 162 ± 3.4 s⁻¹ in series [3]; 67.4 ± 2.6 s⁻¹ in series [4]; 146 ± 3.3 s⁻¹ in series [5]. Besides, the kcat/Km was 210000 ± 20000 M⁻¹ s⁻¹ in series [1]; 260000 ± 30000 M⁻¹ s⁻¹ in series [2]; 6.01e+06 ± 50000 M⁻¹ s⁻¹ in series [3]; 590000 ± 40000 M⁻¹ s⁻¹ in series [4]; 4.96e+06 ± 90000 M⁻¹ s⁻¹ in series [5].

For orientation: Km means the concentration of substrate that gives half-maximal velocity. By kcat is commonly meant the number of substrate molecules converted per active site and unit of time at saturation. As usually defined, the kcat/Km is the second-order rate constant that governs catalysis at low substrate concentration.
